Measurements published in the RNAGym collection of RNA variant scans (doi:10.1073/pnas.2313332121).
Variants at the floor of the assay were thinned out.

B1: TPR 5TU (parent)
chain: GGAUCUUCUCGAUCUAACAAAAAAGACAAAUCUGCCACAAAGCUUGAGAGCAUCUUCGGAUGCAGAGGCGGCAGCCUUCGGUGGCGCGAUAGCGCCAACGUUCUCAACUAUGACACGCAAAACGCGUGCUCCGUUGAAUGGAGUUUAUCAUG

Variants of: B1
Test: polymerase ribozyme fitness, log enrichment relative to wild type (log ratio); higher = more active; in vitro selection for triplet polymerase activity
How it was run: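 After PCR construction and transcription, each subunit's mutant library from a heterodimeric triplet polymerase ribozyme was annealed with a biotinylated primer, the partner subunit and triplets. Incubation was frozen, at −7 °C, and extended constructs were gel-excised, bound to streptavidin beads and amplified by RT-PCR, in one selection round done in triplicate. Fitness is the logarithm of a genotype's enrichment divided by that of the wild type, from inverse-variance-weighted replicate averages of Illumina-sequenced inputs and outputs. The base of the logarithm is 2, and genotypes needed ≥10 input reads and ≥1 read per output.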

Variant	polymerase ribozyme fitness (log ratio)
A16U A106G	-1.8
A16G A37U U134G	-3.68
A16U C85U C87U A115G	-3.52
A16G G94A U104A	-0.709
A16U A22C C27A C125A A150G	≤ -4.2
A17G C43A C54U C93G	≤ -4.2
A17C G133A	-3.15
A16U A21G A30U G48C	≤ -4.2
A16G A41G U53G A73U G88A C125U G133U	≤ -4.2
A16U C27U C57A C93A A107C C125A U146G	≤ -4.2
A16G C57A G62A C96U	-1.89
A16G C54U C76A C93U A97G C103U C123U G128C	≤ -4.2
A17C A26G A41C C54A C72U C87A G100C G143U	≤ -4.2
A16G A41C U55G A142C	-3.52
A17G C35A G67C C96U C114U C116U	≤ -4.2
A16U G58A C93A	-3.46
A16G G126A G143A	-3.34
A17C A41U U56A C99U A121G A147G	-3.04
A17C A21U A29U U53G A73G G94A	≤ -4.2
A17C A47C C95U C116U	-0.195
A17C U33C G42C C51A U53A U139G A142G	≤ -4.2
A16G G83U A107U A142C	≤ -4.2
A16G U31A A39U C132U G136A	-3.4
A16U A64U A66U G94A C108U A150G	≤ -4.2

Variant	polymerase ribozyme fitness (log ratio)
A17C G59A A60C G81C C95U C116U	0.238
A16U U31C C38U C114U	-3.95
A17C A21U C51U G59C C95U A106U G136C U151G	≤ -4.2
A16U A98U A122G U146G	-3.26
A17C A24G A39U U56A C103G G136U	≤ -4.2
A17G C51G U55A C57U G92U C103A C108A	≤ -4.2
A16G A39U C43G G50U G67C U109A U134A U139C	≤ -4.2
A17G C18G A40C C85G A106U G124U C125U	≤ -4.2
A16U C87A G100A	≤ -4.2
A16U A52G U104G U134G	≤ -4.2
A16U G42A U53A C85U C96G A120C	≤ -4.2
A17C G48C C93G	-3.01
A17C A89U	0.471
A16U U53A G80U C85U G152U	≤ -4.2
A17G A23U U55G A66C	≤ -4.2
A17C C38A A47G G92C	-0.622
A17C U61G C85U G126A G140U U151A G152C	≤ -4.2
A17G A29C C32G G48C	≤ -4.2
A16U A150G	-2.95
A16U A47C	-2.04
A17C C54A	-1.11
A16G A37U A60U G71C G84A C116A G124C U146G	≤ -4.2
A16U A19U A26C A37C G74C A89C G94A C108U A113G G136A	≤ -4.2
A17C G84C A142G	-3.21

Variant	polymerase ribozyme fitness (log ratio)
A16U A37U C76G U82G A89G A91G G143U	≤ -4.2
A16G A37C G46A G50C C87A G92A A138C A147U	≤ -4.2
A16G U53G G84U C96G	-3.88
A16U C125A	-2.06
A16U C18G A21G A22U C51U U53G G68A G81C	≤ -4.2
A17C G81U C85A C95U C105G A115U	-3.03
A16U A52G A64U U77A C87A G143C	≤ -4.2
A16U A30C U61A C96U G140U	≤ -4.2
A16U A22C	-2.41
A16G A49U C131U	-1.5
A16G G86A	-0.891
A16U G46U G59C C76G G84U C85U U102C A138U	≤ -4.2
A16U G50C U56A G84C A97U U101A A113C A119G G133U A137U	≤ -4.2
A16G C27A C35G C43A U56G G58C C93U G117C A119C A121U G136A	≤ -4.2
A16U C63U	-1.7
A16U A40G U44A G71C C85A G141A G143U	≤ -4.2
A16G G80C G81A A97G U102C G136C C149U	≤ -4.2
A17C A40G C54A G83A G124A	≤ -4.2
A16G C57A	-0.592
A17G C27A	≤ -4.2
A16U U33C C38U G140U	≤ -4.2
A16G G42C C54G G70A C87A C99U A113C G141U U151C	≤ -4.2
A17C C32U	-1.61
A16U A39C A49C C96U C125U	≤ -4.2

Variant	polymerase ribozyme fitness (log ratio)
A16U A106G U144A	-2.13
A16U A47G C51U C95A C114U	-3.93
A16U U31A C38G A41C G62C A120U A142G A147U	≤ -4.2
A16G C32U C72A C76U C85G A107U	≤ -4.2
A16U A17U G48U U104G G124A C131G	-4.15
A17G A29U G67U G100A C123G C132G	≤ -4.2
A16U U53A C75A C93A C103G U130A	≤ -4.2
A17C U55A U56A C85G A115G	-3.1
A16G G46U	-1.19
A16U C51A A73G C85U A122C	≤ -4.2
A16U U44A G71C C96G A106U U127C G133U G141C U148C	≤ -4.2
A17G C35A A40C G67U C96A C129G	≤ -4.2
A16G U55A G74A U82G C85G	≤ -4.2
A16G U33G U90G C114U G117U A138C A150G	≤ -4.2
A16G C54U	-0.601
A17G C36G C79A C95U A97U G117U G126U	-4.08
A16G C35U C116G	-1.98
A17G C51U U55G C79U G83U C95A C118G U145C	≤ -4.2
A17C U102A	-0.663
A16U U56A G83A U109C U111G	≤ -4.2
A16U C57A C99G U104C	-3.73
A16G C93G	-4.02
A16U A17G G59C U77G G94U	-3.85
A16G C38U G50C U55A C57U C85G A120G A137U G143C	≤ -4.2

Variant	polymerase ribozyme fitness (log ratio)
A17G C35U U53A G94A	-1.28
A17G A21G A29G G81A C93G G112U C118A U135A	≤ -4.2
A17G A49C G59U G92A A113G A119U	-4.03
A17C A47U G58A G83U G94A G126U	≤ -4.2
A16U C69A U145G	-3.75
A16G C87U	-1.85
A16U A17C U44C U56A C76U G88U C114A	≤ -4.2
A17G A23U A26U C116G A138C A142C	≤ -4.2
A16U G34U G71A G94A U102G U151A	≤ -4.2
A16U C96U	-2.07
A16U C27A A28U C54U C75U G92C G136U	≤ -4.2
A17C G50A G84U G143C U144G	≤ -4.2
A17C A28U G46U A98U A107G A113G G133U	≤ -4.2
A17C A29C A66U G67A A91G C96U A115G C116A	≤ -4.2
A17G A22C U61A G84U C96U U109A U111A G141A	≤ -4.2
A16U C38A C75A C114U G143U	≤ -4.2
A16U G50A A60C G83C G141C	≤ -4.2
A16G A40C	-0.456
A16G A73U G94U	-2.22
A17C C35U G74A C76A U78G	≤ -4.2
A17G A39C A107U	≤ -4.2
A16G A91U	≤ -4.2
A16G C18U A30U C35U U55A G71C C93U A97C C116A G141U	≤ -4.2
A16G U144G	0.162

Variant	polymerase ribozyme fitness (log ratio)
A16G G25U A150G	-3.86
A16G G94U C95A U134G	-3.52
A17G A19U C93U U102C G136A U148A	≤ -4.2
A17C A26U A49C	≤ -4.2
A17C C95A C103G C108G	≤ -4.2
A16U A19G C57A	-2.39
A16U C51U C95U	-2.98
A17G C38A U45A C69A C85U A142C C149U U151G	≤ -4.2
A17C C125G G126A	-3.65
A16U A29U U77G C85G C116U C125A U134C	≤ -4.2
A17C A30G C79G C87G C96G C105A	≤ -4.2
A16G G48A A122U C149U	-3.58
A16U C43G G84C	≤ -4.2
A16U G50A C76U	-3.4
A16G C116A	0.283
A16U A21G C85G C93A C116A A150U	≤ -4.2
A16U A19U A40G	≤ -4.2
A16U A30C U44A G88A C105U U109A	≤ -4.2
A16U A39G A89C C95U G152C	≤ -4.2
A16U G88C	≤ -4.2
A17C A47C G94C	-0.464
A16U U55A A91G G117U	≤ -4.2
A17C A91U	≤ -4.2
A17G A24U A26U G58A	-4.02

Variant	polymerase ribozyme fitness (log ratio)
A17C A110U	-4
A17C C27A A52G A60U C69U C85A C95G C125A	≤ -4.2
A16G C18U C27U A28U A40C G50C U56A G84C C125A G143A U146G	≤ -4.2
A16U A39U G84A G92U C103U C149G U151C	≤ -4.2
A17G C27A C35G C75A G86C A142G	≤ -4.2
A17G A23C A97U C114U	≤ -4.2
A16G U53A U146G	-2.19
A16U A120G	-2.64
A16U A120U	-2
A16U G83A A106G A107C C118U C123G C129G A150G	≤ -4.2
A16U U61G G81A	-1.91
A16U G86A A91U A106G C108U C129A	≤ -4.2
A17G C54G	-1.5
A17G C32A C51A U55A A60C G74A G81A U90G C95A	≤ -4.2
A16G C38A U56G C96U C103U C149G	≤ -4.2
A17C A40C G83C U109G	-3.6
A16G C43A U53C G70A A73G	≤ -4.2
A17C C57A C114U	-1.86
A16U C38U A60C G80U A97G	≤ -4.2
A16U G50A C95G C118G	≤ -4.2
A16U A52U G74A C87A A119U U148G	≤ -4.2
A17C A23U G59U G84A U90C U151A	≤ -4.2
A17C C95U A119U A150G	-1.7
